Measured values taken from patent US20120207760A1.

Tests used:
[1] = target: M2 protein of influenza A/Puerto Rico/8/34 (H1N1), on inactivated virus (Influenza A virus A/Puerto Rico/8/34 (H1N1)) (UniProt P06821); assay: surface plasmon resonance, Fab fragment on influenza virus
[2] = target: M2 protein of influenza A/Japan/305/57 (H2N2), on inactivated whole virions (Influenza A virus A/Japan/305/1957 (H2N2)) (UniProt Q6XU12); assay: ELISA, positive control antibody on inactivated whole virions
[3] = target: recombinant soluble homotrimeric HA of A/Common magpie/Hong Kong/5052/07 - H5N1 (Influenza A virus A/common magpie/Hong Kong/5052/2007 (H5N1)); assay: micro-array; captured IgG, V5-tagged trimeric HA

Chain of TCN-032 (8I10) (antibody) (VH): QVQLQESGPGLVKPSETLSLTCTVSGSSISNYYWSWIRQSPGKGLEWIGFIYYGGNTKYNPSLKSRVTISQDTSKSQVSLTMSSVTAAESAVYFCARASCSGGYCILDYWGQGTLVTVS
Chain of TCN-032 (8I10) (antibody) (VL): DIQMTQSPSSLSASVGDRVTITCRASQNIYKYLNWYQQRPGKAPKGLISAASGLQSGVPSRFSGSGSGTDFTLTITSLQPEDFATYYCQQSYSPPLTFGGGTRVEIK

ch14C2 Fab fragment
Kd [1]: 4 µM | koff [1]: 0.0018 s⁻¹ | kon [1]: 500 M⁻¹ s⁻¹

TCN-032 (8I10) (antibody)
OD450 [2]: 3.61 OD450

TCN-202 (2N9) (antibody)
Trimeric HA Binding: RLU [3]: 1370 RLU
